Data taken from US8877476B2, “Soluble and stable human 5-lipoxygenase” (Board of Supervisors of Louisiana State University and …, priority 2010, dated 2014).
Where a chain is given by its changes, count along the chain named. In names and notes the source's numbering stands.

B1: Sol-5-LOX: more soluble form of human 5-LOX, SEQ ID NO: 2 (W13E, F14H, Δ40-44GS, W75G, L76S, C240A, C561A) (protein)
chain: MGSSHHHHHHSSGLVPRGSHMPSYTVTVATGSQEHAGTDDYIYLSLVGSAGCSEKHLLDKGSFERGAVDSYDVTVDEELGEIQLVRIEKRKYGSNDDWYLKYITLKTPHGDYIEFPCYRWITGDVEVVLRDGRAKLARDDQIHILKQHRRKELETRQKQYRWMEWNPGFPLSIDAKCHKDLPRDIQFDSEKGVDFVLNYSKAMENLFINRFMHMFQSSWNDFADFEKIFVKISNTISERVMNHWQEDLMFGYQFLNGANPVLIRRCTELPEKLPVTTEMVECSLERQLSLEQEVQQGNIFIVDFELLDGIDANKTDPCTLQFLAAPICLLYKNLANKIVPIAIQLNQIPGDENPIFLPSDAKYDWLLAKIWVRSSDFHVHQTITHLLRTHLVSEVFGIAMYRQLPAVHPIFKLLVAHVRFTIAINTKAREQLICECGLFDKANATGGGGHVQMVQRAMKDLTYASLCFPEAIKARGMESKEDIPYYFYRDDGLLVWEAIRTFTAEVVDIYYEGDQVVEEDPELQDFVNDVYVYGMRGRKSSGFPKSVKSREQLSEYLTVVIFTASAQHAAVNFGQYDWASWIPNAPPTMRAPPPTAKGVVTIEQIVDTLPDRGRSCWHLGAVWALSQFQENELFLGMYPEEHFIEKPVKEAMARFRKNLEAIVSVIAERNKKKQLPYYYLSPDRIPNSVAI
modifications: Δ40-44 replaced by GS; Sol-5-LOX
B2: S663D-Stable-5-LOX: Stable-5-LOX with Serine 663 replaced with Aspartic acid, SEQ ID NO: 4, mimics phosphorylated state (protein)
chain: B1 chain with K671E, K672N, K673L, S681D
modifications: S663D-Stable-5-LOX

Assays:
[1] = Product assays (HPLC of arachidonic acid oxygenation products); type: biochemical
Experimental: Incubations were conducted in 0.5 ml 0.1 M Tris pH 7.5 containing 150 mM NaCl and 1 mM CaCl2 with 1-20 μg/ml 5-LOX enzyme. The reaction was initiated by addition of arachidonic acid (10-100 μM) added in 1-5 μl ethanol and monitored by UV spectroscopy until completion of reaction (5-10 min). Products were extracted by adjusting the solution to ˜pH 4 by addition of 50 μl 1 M KH2PO4 plus 5 μl 1N HCl and vigorous mixing with two volumes of dichloromethane. After a brief centrifugation to clear the phases, the lower organic layer was collected, washed twice with 0.5 ml water, taken to dryness under a stream of nitrogen, and then dissolved in a small volume of methanol for storage at −20° C. prior to HPLC. Reversed-phase HPLC was carried out using Agilent 1100 series equipment with a Waters C18 Symmetry column (25×0.46 cm), a solvent of acetonitrile/water/glacial acetic acid (60:40:0.01, v/v/v) or methanol/water/glacial acetic acid (80:20:0.01, v/v/v), a flow rate of 1 ml/min, with UV monitoring at 205 nm, 220 nm, 235 nm and 270 nm. The chirality of the product was confirmed as 5S: Mobile phase hexane/methanol 100:2; 1 ml/min; Chiralpak AD column (4.6×250 mm). The HETEs were made into the methyl esters before chiral analysis using ethereal diazomethane.

[2] = Enzyme half-life at 37° C. by monitoring enzyme activity (ΔA238) over 24 hrs; type: biochemical
[3] = Melting curves (thermal denaturation, SYPRO Orange fluorescence); type: physicochemical; conditions: fluorescence vs temperature, four independent experiments in triplicate
Experimental: Melting temperature assays were performed according to the protocol described by Ericsson et al. (31) Protein was diluted to 1 μM in a final volume of 150 μl 5×SYPRO® Orange protein stain (Invitrogen, Carlsbad, Calif.). Samples were aliquoted in triplicate volumes of 40 μl in a 96-well reaction plate. The plate was subjected to a linear thermal shift from 5 to 94° C. in one degree increments in a 7500 Fast Real-Time PCR System (Applied Biosystems, Branchburg, N.J.). The SYBR Green cutoff filter was used for fluorescence detection of denaturing protein-SYPRO® Orange binding. The resulting data were exported to Sigma Plot 9, and the sigmoidal part of the curve was averaged for each triplicate. The averaged curves were subsequently fit to a four parameter sigmoidal equation. The Tm values reported are the results of four independent experiments, each in triplicate, with multiple protein preparations.

[4] = Concentration to which the protein can be concentrated; type: physicochemical

| Molecule | products formed from arachidonic acid ([1]; HPLC chromatogram, FIG. 6D / FIG. 8) | half-life at 37° C. [2] | Tm (with s.d.) [3] | can be concentrated to [4] | change of product specificity by the S663D amino acid change ([1]; Serine 663 replaced with Aspartic acid, method not described) |
| --- | --- | --- | --- | --- | --- |
| B1 | produces both the intermediate 5S-HPETE and the product leukotriene A4 | ~7 h | 56.6(±0.4) ° C. | 2 mg/mL |  |
| B2 |  |  |  |  | converted the enzyme from a 5-LOX to a 15-LOX |
